This note sets out measurements from patent publication US20190248888A1, “METHODS OF LOWERING BLOOD GLUCOSE LEVELS” (Regeneron Pharmaceuticals, Inc., priority 2016, published 2019).

For one test, the system named is Slc38a5−/− mice. The experiment in a line: GCGR antibody in Slc38a5−/− mice and wildtype littermates. Conditions: 10 mg/kg weekly, 20 days. In kind it is in vivo, mouse. The procedure:
Mice deficient in Slc38a5 (100% C57BL/6NTac) were generated by homologous recombination using Regeneron's VelociGene technology (Valenzuela et al., 2003, Nat Biotechnol 21:652-659). VelociGene allele identification number is VG15016. Both male and female mice were used for the study. […] Slc38a5^−/− mice and wildtype littermates were dosed with GCGR or control antibody (10 mg/kg; n=8) weekly for 20 days. Samples of blood and plasma as well as organ weights and pancreata were collected as outlined above.

A further test relates to Slc38a5 in α-cells. The experiment in a line: Slc38a5 RNA in situ hybridization and immunofluorescence of pancreas sections. In kind it is in vivo, mouse. An excerpt: Formalin fixed mouse pancreatic sections were permeabilized and hybridized with custom made mRNA probes to glucagon and mouse Slc38a5 (ACD BIO). Following probe hybridization and amplification, Slc38a5 mRNA was detected using red chromogen and glucagon mRNA with green chromogen (RNAscope 2.5 HD Duplex Reagent Kit) and images were obtained using a Zeiss Axio Scan.Z1 slide scanner (Zeiss).

The subject of a further test is C57BL/6 mice. The experiment in a line: GCGR antibody with or without rapamycin in C57BL/6 mice: blood chemistry, islet cell mass. The note with it: 21 days.

Method for C57BL/6 mice: C57BL/6 mice (males, 10 weeks of age, Taconic) were housed (5 mice per cage) in a controlled environment (12-h light/dark cycle, 22±1° C., 60-70% humidity) and fed ad libitum with standard chow (Purina Laboratory Rodent Diet 5001, LabDiet). Mice were assigned to study groups (n=10) based on baseline blood glucose levels. Mice were injected subcutaneously (sc) with GCGR antibody (3 mg/kg) or the control antibody (3 mg/kg) alone or in combination with rapamycin (10 mg/kg) or the vehicle. For the duration of the study, GCGR or control antibody was administered once weekly, whereas rapamycin or the vehicle was administered daily. Blood was collected from the tail for glucose measurements without fasting. Plasma samples were collected via submandibular bleeds at baseline and on day 21 after dosing for analysis of hormones and total amino acid levels. Seven days after the last antibody administration (day 21), mice were sacrificed, organs weighed and pancreata collected.
Pancreas α- and β-cell mass was measured as described elsewhere (Okamato et al., 2015, Endocrinology 156:2781-2794). α- and PP cell mass were determined using anti-somatostatin antibody (Sigma-Aldrich; #SAB4502861) and anti-pancreatic polypeptide antibody (Sigma-Aldrich; #SAB2500747). For quantifying Slc38a5 positive α-cells, pancreas sections were stained with human anti-glucagon and rabbit anti-Slc38a5 (Abcam; #ab72717) primary antibodies, and Alexa Fluor 488 labeled donkey anti-rabbit (Jackson ImmunoResearch; #711-545-152) and Alexa Fluor 594 donkey anti-human (Jackson ImmunoResearch; #709-585-149) secondary antibodies. For quantifying proliferating cells, Alexa Fluor 647 labeled anti-Ki67 (Abcam; #ab194724) was used in combination with anti-glucagon and anti-Slc38a5 antibodies. Slides were scanned using a Zeiss Axio Scan.Z1 slide scanner (Zeiss) and the images were analyzed using the Halo (Indica Labs).
Blood glucose was determined using ACCU-CHEK® Compact Plus (Roche Diagnostics). Plasma glucagon and insulin levels were determined using glucagon and mouse insulin ELISA (Mercodia). Plasma total amino acid levels were measured using L-Amino Acid Quantification Kit (Sigma-Aldrich).

B1: α-GCGR: potent monoclonal GCGR blocking antibody, HCVR/LCVR SEQ ID NOs: 86/88 (antibody, V domains shown)
VH: EVQLVESGGGLVQPGGSLRLSCAASGFTFSNYLMNWVRQAPGKGLEWLANIQEDGIEKYYVDSVKGRFTISRDNAKNSLYLQMNSLRAEDTAVYYCAREPSHYDILTGYDYYYGMDVWGQGTTVTVS
VL: DIQMTQSPSSLSASVGDRVTITCRASQGIRNDLGWYQQKPGKAPKRLIYAASSLQSGVPSRFSGSGSGTEFILTVSSLQPEDFATYYCLQYNSNPFTFGPGTKVDIK
For the molecule B1, in the test with Slc38a5−/− mice, the “blood glucose levels in Slc38a5−/− mice compared with littermate control mice” value is “to the same extent” and the “reduction of the expansion of α-cell mass in Slc38a5−/− mice relative to treated control mice” value is 50%. Moreover, in the test with Slc38a5−/− mice (WT and Slc38a5−/− mice), the plasma insulin levels entry is “No effects”; the “α-cell mass or number of islets per pancreas area (FIGS. 5H and 5I)” value is “did not affect”. Further, the “Slc38a5 immunostaining of pancreas sections” value with Slc38a5 in α-cells (mice, 3 mg/kg, 21 days) was “detected in a subset of glucagon-positive cells”. The “Slc38a5 mRNA expression in α-cells (RNA ISH)” value with Slc38a5 in α-cells (pancreas sections of treated mice) is given as “upregulation”. For the same molecule, the blood glucose levels result in the test on C57BL/6 mice (C57BL/6 mice, 3 mg/kg weekly) is “reduce”. In the test with C57BL/6 mice (GCGR antibody 3 mg/kg), the “plasma amino acid levels” value is “significantly increased” and the α-cell size result is “slightly increased”.
